“And” between values parts separate entries of the source, which are not always exact repeats. Identical values can stand only once.
B1: Cytochrome c-552 wild type, P15452 (protein)
chain: MKKFLLVAVVGLAGITFANEQLAKQKGCMACHDLKAKKVGPAYADVAKKYAGRKDAVDYLAGKIKKGGSGVWGSVPMPPQNVTDAEAKQLAQWILSIK
B2: Cytochrome c-551 wild type, P00099 (protein)
chain: MKPYALLSLLATGTLLAQGAWAEDPEVLFKNKGCVACHAIDTKMVGPAYKDVAAKFAGQAGAEAELAQRIKNGSQGVWGPIPMPPNAVSDDEAQTLAKWVLSQK

Conditions: pH 7, Thermal, CD, Phosphate 50 mM, whole UniProt chain shown

Protein	unfolding enthalpy (van 't Hoff) (Hydrogenobacter thermophilus (strain DSM 6534 / IAM 12695 / TK-6), 25 °C)	unfolding enthalpy (van 't Hoff) (Hydrogenobacter thermophilus (strain DSM 6534 / IAM 12695 / TK-6))	unfolding free energy (Pseudomonas aeruginosa (strain ATCC 15692 / DSM 22644 / CIP 104116 / JCM 14847 / LMG 12228 / 1C / PRS 101 / PAO1), 25 °C)	unfolding enthalpy (van 't Hoff) (Pseudomonas aeruginosa (strain ATCC 15692 / DSM 22644 / CIP 104116 / JCM 14847 / LMG 12228 / 1C / PRS 101 / PAO1))
B1	56.3 kcal/mol and 64.2 kcal/mol	109 kcal/mol and 140 kcal/mol		
B2			7.7 kcal/mol and 19.5 kcal/mol	70.5 kcal/mol and 159 kcal/mol

Source: FireProtDB (doi:10.1021/ja046667t)
